In US20250116035, “A METHOD FOR REPRODUCIBLE APTAMER SELECTION USING CLOSED SEQUENCE SOLUTION SPACES” (NEOVENTURES BIOTECHNOLOGY INC., published 2025):

What was measured:
[1] = system: immunoglobulin G (IgG), pooled; experiment: SPR; details: 5' thiol (immobilized on gold); SPR imaging, aptamer immobilized on gold chip; IgG 250 nM; ka 3.69E5, kd 7.56E-3
[2] = biological target: human serum albumin (HSA) (Homo sapiens, UniProt P02768 P02768:25-609); experiment: SPR; counter-target; 250 nM HSA; aptamer described as selected to bind IgG and not HSA; curve only in figure
Method: These sequences were synthesized with a 5′ thiol and immobilized onto a gold surface in triplicate spots at a concentration of 5 uM in a volume of 10 nL. A negative aptamer of the same length not selected for binding to serum albumin was also spotted on the gold chips in the same manner. These were allowed to dry, and the remainder of the surface was blocked with thiolylated polyethylene glycol with an average molecular weight of 5 kda. The gold chips were then inserted on top of a glass prism in a Horiba Openplex Surface Plasmon Resonance imaging instrument (SPRi). Human serum albumin at two concentrations (100 nM and 250 nM) was injected over the chip at a volume of 200 uL and a flow rate of 50 uL/min. We also injected a pool of immunoglobulin (IgG) at a concentration of 250 nM at the same volume and flow rates.
Binding analysis for the selected IgG sequences was performed in a manner identical to that described for the HSA sequences.

Sequence of human serum albumin (HSA) (P02768 25-609, one chain of several): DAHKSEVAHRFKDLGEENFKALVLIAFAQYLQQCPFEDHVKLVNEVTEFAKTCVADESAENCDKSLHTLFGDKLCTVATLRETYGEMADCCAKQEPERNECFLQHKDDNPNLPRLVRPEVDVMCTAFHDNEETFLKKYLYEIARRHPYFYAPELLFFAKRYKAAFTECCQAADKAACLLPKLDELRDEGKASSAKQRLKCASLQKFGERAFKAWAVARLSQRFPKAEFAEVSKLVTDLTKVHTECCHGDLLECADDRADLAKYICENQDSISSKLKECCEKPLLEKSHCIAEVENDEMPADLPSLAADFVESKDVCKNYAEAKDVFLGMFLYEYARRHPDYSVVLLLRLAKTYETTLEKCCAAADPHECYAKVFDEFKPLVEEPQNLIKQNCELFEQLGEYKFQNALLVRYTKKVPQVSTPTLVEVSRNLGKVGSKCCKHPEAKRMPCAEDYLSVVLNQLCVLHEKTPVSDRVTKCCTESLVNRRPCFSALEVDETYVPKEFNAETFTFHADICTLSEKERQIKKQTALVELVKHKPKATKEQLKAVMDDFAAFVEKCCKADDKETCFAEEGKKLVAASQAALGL

## CCAGATACAGACCCGAGGTGAGAATTTCAACCATCGGCGCCAACAAAACATTCTCTCAGATACAGTAGACAGC [fBIgG-2]
[1]
  Kd: 20.5 nM

B1: fBIgG-2 (ssDNA)
DNA: CCAGATACAGACCCGAGGTGAGAATTTCAACCATCGGCGCCAACAAAACATTCTCTCAGATACAGTAGACAGC
modifications: 5' thiol (immobilized on gold)
[2]
  binding result: no binding
